Experimental findings from article PMC3781594 (Circulation, 2013) are described below.

The target of experiment [1] is T1, recombinant CD74 ectodomain (sCD74 = CD74 73-232) (UniProt P04233-2 73-232).
T1 sequence (looked up): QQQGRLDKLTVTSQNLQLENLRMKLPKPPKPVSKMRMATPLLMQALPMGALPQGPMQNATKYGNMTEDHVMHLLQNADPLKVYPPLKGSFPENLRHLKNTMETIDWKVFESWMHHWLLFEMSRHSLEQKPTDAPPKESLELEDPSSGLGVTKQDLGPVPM
The experiment in a line: ELISA. (ELISA stands for enzyme-linked immunosorbent assay.)

Experiment [2] addresses T1, recombinant CD74 ectodomain (sCD74 = …). The experiment in a line: SPR. In general terms: In SPR one partner is held on a chip, and binding of the other changes the refractive index at the surface.
Experiment [3] shares this target. The experiment in a line: SPR. This is another data set of the same source.

Read-outs that look alike come from different tables or passages of the source.

B1: biotinylated MIF (ligand, UniProt P14174 1-115, looked up)
chain: MPMFIVNTNVPRASVPDGFLSELTQQLAQATGKPPQYIAVHVVPDQLMAFGGSSEPCALCSLHSIGKIGGAQNRSYSKLLCGLLAERLRISPDRVYINYYDMNAANVGWNNSTFA
modifications: biotin (site not stated)
As to B1, in experiment [1], the “fold increase of MIF bound with 500 nM MIF20 against MIF without agonist” value was about 2.5 fold.

B2: human macrophage migration inhibitory factor (MIF) (ligand, UniProt P14174 1-115, looked up)
chain: MPMFIVNTNVPRASVPDGFLSELTQQLAQATGKPPQYIAVHVVPDQLMAFGGSSEPCALCSLHSIGKIGGAQNRSYSKLLCGLLAERLRISPDRVYINYYDMNAANVGWNNSTFA
The term Kd denotes the constant that tells how readily two partners part at equilibrium. Regarding B2, the figures for the Kd in experiment [2] and in experiment [3] were 2.25 nM and 6.06 nM, respectively.
